Consider seven substances from PMC12985673.

“And” between values parts separate entries of the source, which are not always exact repeats. Equal entries are not always repeated. Where two headings read alike, the source gives them in different places.

Test [1] has as its target NRXβ1 ECD (amino acids 81 to 311), His-tagged, labelled with Alexa Fluor 488 (mouse) (UniProt P0DI97). The test can be described thus: fluorescence polarisation; 8 nM NRXβ1 ECD–AF488, NL2 or NL2mut titrated 15 nM to 8 μM; 20 mM Hepes pH 7.5, 150 mM NaCl, 1 mM MgCl2, 0.5 mM CaCl2; triplicate; Hill fit with shared slope; apparent. Background: In fluorescence polarisation assays a small probe gives low polarisation when free and higher when bound to something large.

The target in test [2] is Neurexin β1 (UniProt P58400). Particulars: cited from earlier work.
Chain of Neurexin β1 (P58400 51-396): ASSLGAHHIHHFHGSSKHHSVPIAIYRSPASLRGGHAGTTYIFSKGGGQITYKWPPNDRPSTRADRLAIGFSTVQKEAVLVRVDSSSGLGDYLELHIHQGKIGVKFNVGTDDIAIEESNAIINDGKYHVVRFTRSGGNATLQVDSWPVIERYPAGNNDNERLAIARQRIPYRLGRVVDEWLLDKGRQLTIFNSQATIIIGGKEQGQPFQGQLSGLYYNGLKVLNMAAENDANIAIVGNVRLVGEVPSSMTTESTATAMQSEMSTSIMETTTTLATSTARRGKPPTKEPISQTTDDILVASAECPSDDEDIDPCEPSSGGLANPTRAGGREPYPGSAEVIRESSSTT
For test [3], the target named is Neurexin β1 ECD (UniProt P58400). Particulars: cited from earlier work.
Chain of Neurexin β1 ECD (P58400 51-396): as above
Test [4] shares this target. To be noted: cited from earlier work. This is another data set of the same source.
In test [5] the target is full-length neuroligin 2 (NL2), mouse, without the splice insert at site A (mouse) (UniProt Q69ZK9). The test can be described thus: proteoliposome colocalisation (TIRF microscopy); as a5 at 2x protein: NL2 1:5 and NRXβ1 1:10 protein:lipid (w/w); all detections.
Chain of full-length neuroligin 2 (NL2), mouse, without the splice insert at site A (mouse) (Q69ZK9 other isoform, or with tags, fused parts or gaps): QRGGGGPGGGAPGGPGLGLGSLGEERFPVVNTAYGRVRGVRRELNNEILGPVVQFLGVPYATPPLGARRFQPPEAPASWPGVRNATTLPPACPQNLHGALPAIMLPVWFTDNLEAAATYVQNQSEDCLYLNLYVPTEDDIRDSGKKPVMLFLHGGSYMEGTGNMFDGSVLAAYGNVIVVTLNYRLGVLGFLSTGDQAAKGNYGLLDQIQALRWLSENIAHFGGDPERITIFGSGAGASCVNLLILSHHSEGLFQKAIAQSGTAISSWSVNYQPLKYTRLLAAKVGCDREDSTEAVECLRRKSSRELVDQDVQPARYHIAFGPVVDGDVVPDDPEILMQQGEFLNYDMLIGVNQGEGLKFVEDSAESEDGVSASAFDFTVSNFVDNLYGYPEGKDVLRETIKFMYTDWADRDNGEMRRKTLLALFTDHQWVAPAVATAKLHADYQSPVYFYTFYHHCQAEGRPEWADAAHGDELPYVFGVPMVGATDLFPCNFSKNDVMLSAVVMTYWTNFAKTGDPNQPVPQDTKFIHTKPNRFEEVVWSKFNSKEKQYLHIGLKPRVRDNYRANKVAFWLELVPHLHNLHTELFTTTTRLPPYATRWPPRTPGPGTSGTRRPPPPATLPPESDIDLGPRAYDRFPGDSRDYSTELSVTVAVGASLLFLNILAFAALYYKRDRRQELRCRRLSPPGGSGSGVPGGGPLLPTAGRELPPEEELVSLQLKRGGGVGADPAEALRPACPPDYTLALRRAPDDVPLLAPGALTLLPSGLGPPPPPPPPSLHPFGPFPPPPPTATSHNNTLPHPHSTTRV
Test [6] has the same target. The test can be described thus: cryo-EM structure; NL2 and NRXβ1 purified separately, mixed at one-to-one molar ratio, ~20 μM (monomer) each, on ice 10 min; only the ECDs resolved; Ca2+ at the interface.
Test [7] shares this target. The test can be described thus: proteoliposome colocalisation (TIRF microscopy); as a5 at 2x protein: NL2 1:5 and NRXβ1 1:10 protein:lipid (w/w); all detections. The source holds these as a separate data set.
The target in test [8] is Neurexin β1 (UniProt P58400). Particulars: cited from earlier work. The source holds these as a separate data set.

Chain of full-length neuroligin 2 (NL2), mouse, without the splice insert at site A (Q69ZK9 other isoform, or with tags, fused parts or gaps): as above
Chain of Neuroligin 1 ECD (Q8N2Q7 46-717): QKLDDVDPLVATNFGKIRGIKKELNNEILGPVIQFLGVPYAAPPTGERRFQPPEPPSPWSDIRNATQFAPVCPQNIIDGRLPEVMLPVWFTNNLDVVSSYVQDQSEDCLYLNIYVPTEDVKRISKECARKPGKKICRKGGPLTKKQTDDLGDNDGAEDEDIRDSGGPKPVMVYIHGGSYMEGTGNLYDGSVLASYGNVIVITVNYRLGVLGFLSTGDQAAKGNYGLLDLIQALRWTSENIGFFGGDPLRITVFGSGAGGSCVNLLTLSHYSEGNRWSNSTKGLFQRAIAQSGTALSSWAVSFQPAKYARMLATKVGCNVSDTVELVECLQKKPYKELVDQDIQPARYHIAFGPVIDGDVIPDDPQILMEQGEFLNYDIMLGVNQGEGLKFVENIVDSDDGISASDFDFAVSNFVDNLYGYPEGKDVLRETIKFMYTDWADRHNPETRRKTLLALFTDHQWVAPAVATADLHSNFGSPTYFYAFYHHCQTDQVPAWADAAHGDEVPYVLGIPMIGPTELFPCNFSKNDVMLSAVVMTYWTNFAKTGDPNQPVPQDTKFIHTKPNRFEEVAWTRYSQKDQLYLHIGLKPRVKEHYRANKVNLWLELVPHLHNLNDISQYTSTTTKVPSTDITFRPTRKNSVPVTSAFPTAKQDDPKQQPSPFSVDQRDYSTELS
Chain of Neuroligin 3 (Q9NZ94 38-709): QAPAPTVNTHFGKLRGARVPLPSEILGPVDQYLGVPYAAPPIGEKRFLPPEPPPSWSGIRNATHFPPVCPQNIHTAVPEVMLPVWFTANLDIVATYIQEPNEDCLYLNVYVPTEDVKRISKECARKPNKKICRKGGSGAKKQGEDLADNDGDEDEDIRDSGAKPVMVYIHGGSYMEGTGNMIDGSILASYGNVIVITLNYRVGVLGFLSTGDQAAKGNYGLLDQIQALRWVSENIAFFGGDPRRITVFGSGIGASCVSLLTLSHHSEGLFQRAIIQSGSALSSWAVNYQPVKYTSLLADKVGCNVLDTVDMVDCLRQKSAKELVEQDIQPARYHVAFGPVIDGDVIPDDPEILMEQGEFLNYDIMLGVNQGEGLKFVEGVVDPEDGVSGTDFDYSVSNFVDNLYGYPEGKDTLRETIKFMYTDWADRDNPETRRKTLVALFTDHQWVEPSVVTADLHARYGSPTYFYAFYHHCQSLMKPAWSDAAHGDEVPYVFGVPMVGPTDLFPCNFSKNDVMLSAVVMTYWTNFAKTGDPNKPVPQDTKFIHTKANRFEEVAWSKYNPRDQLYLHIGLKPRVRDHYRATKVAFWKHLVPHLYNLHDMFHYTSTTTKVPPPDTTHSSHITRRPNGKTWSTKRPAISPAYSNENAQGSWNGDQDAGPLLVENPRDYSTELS
Chain of Neuroligin 2 (Q8NFZ4 15-677): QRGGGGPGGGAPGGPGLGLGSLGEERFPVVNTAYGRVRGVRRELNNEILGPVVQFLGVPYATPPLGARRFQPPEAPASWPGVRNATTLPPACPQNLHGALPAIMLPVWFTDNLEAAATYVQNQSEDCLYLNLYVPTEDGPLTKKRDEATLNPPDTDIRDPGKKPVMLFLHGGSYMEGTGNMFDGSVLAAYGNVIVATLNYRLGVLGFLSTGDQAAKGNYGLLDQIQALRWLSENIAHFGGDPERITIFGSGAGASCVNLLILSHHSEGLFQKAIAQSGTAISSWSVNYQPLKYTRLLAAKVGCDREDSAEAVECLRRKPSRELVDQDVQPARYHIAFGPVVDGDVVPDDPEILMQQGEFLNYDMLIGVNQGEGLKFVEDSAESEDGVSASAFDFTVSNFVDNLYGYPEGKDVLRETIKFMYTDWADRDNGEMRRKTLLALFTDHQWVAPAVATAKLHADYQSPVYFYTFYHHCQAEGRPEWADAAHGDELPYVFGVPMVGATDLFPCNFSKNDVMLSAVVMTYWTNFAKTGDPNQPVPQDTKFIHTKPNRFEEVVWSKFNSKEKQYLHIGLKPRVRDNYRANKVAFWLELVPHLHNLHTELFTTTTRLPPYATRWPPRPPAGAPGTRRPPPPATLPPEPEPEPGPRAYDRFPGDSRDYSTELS

For “full-length neuroligin 2 (NL2), mouse, without the splice insert at site A (from UniProt Q69ZK9 15-836) (receptor)”, in test [1], the Kd turned out to be 6 µM.

For Neuroligin 3 (from UniProt Q9NZ94), in the test with Neurexin β1 [2], the Kd is 1 µM.

As for Neuroligin 4 ECD (from UniProt Q8N0W4), in the test with Neurexin β1 ECD [3], the Kd is 0.1 µM.

For Neuroligin 1 ECD (from UniProt Q8N2Q7), the Kd in the test with Neurexin β1 ECD [4] was 0.01 µM.

Consider “full-length neurexin β1 (NRXβ1), mouse, without the insert at splice site 4 (from UniProt P0DI97 47-468) (receptor)”, for which the figures for the fraction of vesicles colocalised in test [5] and in test [7] were > 0.5 and 0.6, respectively. Also, in test [6], the stoichiometry N (NRXβ1 per NL2 dimer) was 2 and 1.

On to “NL2 H279Y G282K mutant (from UniProt Q69ZK9 170-836) (receptor)”, for which, in test [1], the fold increase of affinity against wild-type NL2 is 30 fold.

In the case of Neuroligin 2 (from UniProt Q8NFZ4), in the test with Neurexin β1 [8], the Kd is 10 µM.
